Source: patent US20230194519A1 (CCOA THERAPEUTICS, published 2023)
Each block holds one molecule with its values, some of them ahead of it.

Legend:
[1] = target: Inactive αIIbβ3 (recombinant human ectodomain αIIbβ3 on DETA beads before activation) (human) (UniProt P08514); test: flow cytometry, 50 nM FITC-PAC-1 on inactive αIIbβ3 beads, n ≥ 3
[2] = target: Activated αIIbβ3 (recombinant human ectodomain αIIbβ3 on DETA beads after incubation in activation buffer with CaCl2, MnCl2 and MgCl2) (human) (UniProt P08514); test: flow cytometry, 50 nM FITC-PAC-1 on activated αIIbβ3 beads, n ≥ 3
Chain of Activated αIIbβ3 (recombinant human ectodomain αIIbβ3 on DETA beads after incubation in activation buffer with CaCl2, MnCl2 and MgCl2) (human) (P08514 other isoform, or with tags, fused parts or gaps limits assumed, chain 1 of 2): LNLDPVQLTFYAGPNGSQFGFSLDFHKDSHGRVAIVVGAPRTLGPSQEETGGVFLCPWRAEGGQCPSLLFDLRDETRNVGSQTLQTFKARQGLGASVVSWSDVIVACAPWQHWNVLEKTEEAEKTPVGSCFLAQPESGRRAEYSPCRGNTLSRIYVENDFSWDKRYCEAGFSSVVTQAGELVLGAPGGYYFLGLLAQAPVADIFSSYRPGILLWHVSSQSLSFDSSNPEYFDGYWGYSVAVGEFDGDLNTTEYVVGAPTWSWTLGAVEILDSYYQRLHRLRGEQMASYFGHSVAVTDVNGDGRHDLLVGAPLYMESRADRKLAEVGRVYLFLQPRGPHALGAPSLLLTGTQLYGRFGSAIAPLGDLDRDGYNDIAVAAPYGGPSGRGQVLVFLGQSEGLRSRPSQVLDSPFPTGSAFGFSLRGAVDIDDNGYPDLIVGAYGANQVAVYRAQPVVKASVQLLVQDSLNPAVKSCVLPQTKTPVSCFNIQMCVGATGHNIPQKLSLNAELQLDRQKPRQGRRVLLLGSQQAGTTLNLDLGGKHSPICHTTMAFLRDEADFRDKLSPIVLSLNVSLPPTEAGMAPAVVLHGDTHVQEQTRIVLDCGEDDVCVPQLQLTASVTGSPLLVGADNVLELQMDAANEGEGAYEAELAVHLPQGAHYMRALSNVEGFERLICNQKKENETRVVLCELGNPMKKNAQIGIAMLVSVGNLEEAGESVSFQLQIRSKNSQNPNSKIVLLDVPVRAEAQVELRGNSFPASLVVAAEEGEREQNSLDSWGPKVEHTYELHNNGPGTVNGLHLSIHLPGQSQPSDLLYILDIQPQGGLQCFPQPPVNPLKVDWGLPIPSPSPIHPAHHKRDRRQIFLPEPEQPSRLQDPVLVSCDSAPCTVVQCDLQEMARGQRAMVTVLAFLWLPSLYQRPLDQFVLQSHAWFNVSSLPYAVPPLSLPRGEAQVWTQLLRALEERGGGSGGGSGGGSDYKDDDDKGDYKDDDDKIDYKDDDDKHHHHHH
Chain of Activated αIIbβ3 (recombinant human ectodomain αIIbβ3 on DETA beads after incubation in activation buffer with CaCl2, MnCl2 and MgCl2) (human) (chain, as listed by the source limits assumed, chain 2 of 2): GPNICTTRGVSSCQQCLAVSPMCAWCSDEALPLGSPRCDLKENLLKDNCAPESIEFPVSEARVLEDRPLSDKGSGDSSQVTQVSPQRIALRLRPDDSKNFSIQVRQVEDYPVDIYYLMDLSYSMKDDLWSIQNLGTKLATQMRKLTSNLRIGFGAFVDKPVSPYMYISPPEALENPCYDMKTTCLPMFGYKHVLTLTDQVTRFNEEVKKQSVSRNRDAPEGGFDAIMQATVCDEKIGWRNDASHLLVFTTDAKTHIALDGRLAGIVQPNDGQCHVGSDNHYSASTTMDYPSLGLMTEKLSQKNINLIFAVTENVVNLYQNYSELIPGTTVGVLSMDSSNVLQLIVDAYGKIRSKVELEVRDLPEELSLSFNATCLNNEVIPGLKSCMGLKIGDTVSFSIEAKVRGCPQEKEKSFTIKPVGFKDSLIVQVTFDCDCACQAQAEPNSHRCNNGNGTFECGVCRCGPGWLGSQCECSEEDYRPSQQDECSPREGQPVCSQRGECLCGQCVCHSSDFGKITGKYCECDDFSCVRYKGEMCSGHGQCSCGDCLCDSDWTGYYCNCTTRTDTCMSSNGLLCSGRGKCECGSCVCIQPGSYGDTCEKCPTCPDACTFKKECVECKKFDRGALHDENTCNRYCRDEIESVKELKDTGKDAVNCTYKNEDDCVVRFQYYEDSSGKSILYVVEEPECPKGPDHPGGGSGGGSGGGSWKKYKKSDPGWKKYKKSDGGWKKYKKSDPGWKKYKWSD

[3] = target: T1, recombinant human ectodomain αIIbβ3 immobilized on a surface (activation state not stated at the place of the … (human, UniProt P08514 32-993; P05106 27-718); test: flow cytometry sandwich assay, fibrinogen dose response on αIIbβ3 coupled beads, FITC labelled detection antibody, no blocking step
T1 construct: also called αIIbβ3 coupled beads; αIIbβ3 coated beads
T1 sequence (P08514 other isoform, or with tags, fused parts or gaps limits assumed, chain 1 of 2): as the sequence (P08514 other isoform, or with tags, fused parts or gaps limits assumed, chain 1 of 2) above
T1 sequence (P05106 other isoform, or with tags, fused parts or gaps limits assumed, chain 2 of 2): as the sequence (chain, as listed by the source limits assumed, chain 2 of 2) above
From the text: To evaluate the analytical potential of these αIIbβ3 coupled molecular probes, a flow cytometry sandwich assay was developed. […] The same primary antibody was used for both assays, however, the detection antibody for ELISA was HRP labelled and for flow cytometry was FITC labelled. The fibrinogen does response curves are depicted in the inserts of each of FIGS. 5A and 5B. […] The flow cytometry based assay produced a significant increase in performance compared to ELISA, even though a blocking step and a signal amplification-based detection strategy were employed in ELISA. It was postulated that the significant increase in performance observed is due to the SAM and the immobilization strategy which promotes the high-affinity ligand binding conformation of the integrin.

[4] = target: T1, recombinant human ectodomain αIIbβ3 …; test: sandwich ELISA, fibrinogen dose response on plate-immobilized αIIbβ3, HRP labelled detection antibody
Experimental: Fibrinogen ELISA Assay. To ensure similar immobilization levels of recombinant human ectodomain αIIbβ3 between the ELISA plate and integrin coupled magnetic beads, the wells of a 96-well micro plate (Nunc MaxiSorp) were incubated with the same αIIbβ3 concentration per surface area as during the preparation of the magnetic beads, 6.6×10⁴ μg·mL⁻¹·cm⁻². Each well was coated with αIIbβ3 or control proteins (BSA and β3−/− platelet lysate) by incubation of 6 μg/μL protein in binding buffer (TRIS buffered saline with 0.05% TWEEN-20 and 1 mM each of MgCl₂, MnCl₂ and CaCl₂) at 4° C. overnight. Incubation of 3% skim milk (ED Millipore) and 2% TWEEN-20 for 1 hour at 37° C. was used for blocking. The concentration of αIIbβ3 per surface area of bead used when coating SAM coated beads is 6.6×10⁴ μg·mL⁻¹·cm⁻², therefore the wells of 96 well plates used were coated with the same density EDC/NHS quenching achieved by increase pH to 8.6. Bead concentration for synthesis: 6×10⁹ beads·mL⁻¹; Integrin-bead reaction concentration=250 μg·mL⁻¹; Integrin Used=6.6×10⁴ μg·mL⁻¹·cm⁻²; Well Surface Area (50 μL)=0.93 cm²; Concentration/wee for ELISA=6×10⁴ μg·mL⁻¹ (6 μL/well in 50 μL total volume); Stock [αIIbβ3]=5×10⁵ μg·mL⁻¹.
To evaluate the analytical potential of these αIIbβ3 coupled molecular probes, a flow cytometry sandwich assay was developed. […]

Chain of Inactive αIIbβ3 (recombinant human ectodomain αIIbβ3 on DETA beads before activation) (human) (P08514 other isoform, or with tags, fused parts or gaps limits assumed, chain 1 of 2): as the sequence (P08514 other isoform, or with tags, fused parts or gaps limits assumed, chain 1 of 2) above
Chain of Inactive αIIbβ3 (recombinant human ectodomain αIIbβ3 on DETA beads before activation) (human) (chain, as listed by the source limits assumed, chain 2 of 2): as the sequence (chain, as listed by the source limits assumed, chain 2 of 2) above

Mean Fluorescence Intensity (MFI) [1]: 212 MFI
Mean Fluorescence Intensity (MFI) [2]: 942 MFI
Molecule: PAC-1 (antibody)

Kd [3]: 210 nM
Kd [4]: 2200 nM
B1: fibrinogen (ligand)
chain 1: ADSGEGDFLAEGGGVRGPRVVERHQSACKDSDWPFCSDEDWNYKCPSGCRMKGLIDEVNQDFTNRINKLKNSLFEYQKNNKDSHSLTTNIMEILRGDFSSANNRDNTYNRVSEDLRSRIEVLKRKVIEKVQHIQLLQKNVRAQLVDMKRLEVDIDIKIRSCRGSCSRALAREVDLKDYEDQQKQLEQVIAKDLLPSRDRQHLPLIKMKPVPDLVPGNFKSQLQKVPPEWKALTDMPQMRMELERPGGNEITRGGSTSYGTGSETESPRNPSSAGSWNSGSSGPGSTGNRNPGSSGTGGTATWKPGSSGPGSTGSWNSGSSGTGSTGNQNPGSPRPGSTGTWNPGSSERGSAGHWTSESSVSGSTGQWHSESGSFRPDSPGSGNARPNNPDWGTFEEVSGNVSPGTRREYHTEKLVTSKGDKELRTGKEKVTSGSTTTTRRSCSKTVTKTVIGPDGHKEVTKEVVTSEDGSDCPEAMDLGTLSGIGTLDGFRHRHPDEAAFFDTASTGKTFPGFFSPMLGEFVSETESRGSESGIFTNTKESSSHHPGIAEFPSRGKSSSYSKQFTSSTSYNRGDSTFESKSYKMADEAGSEADHEGTHSTKRGHAKSRPV
chain 2: QGVNDNEEGFFSARGHRPLDKKREEAPSLRPAPPPISGGGYRARPAKAAATQKKVERKAPDAGGCLHADPDLGVLCPTGCQLQEALLQQERPIRNSVDELNNNVEAVSQTSSSSFQYMYLLKDLWQKRQKQVKDNENVVNEYSSELEKHQLYIDETVNSNIPTNLRVLRSILENLRSKIQKLESDVSAQMEYCRTPCTVSCNIPVVSGKECEEIIRKGGETSEMYLIQPDSSVKPYRVYCDMNTENGGWTVIQNRQDGSVDFGRKWDPYKQGFGNVATNTDGKNYCGLPGEYWLGNDKISQLTRMGPTELLIEMEDWKGDKVKAHYGGFTVQNEANKYQISVNKYRGTAGNALMDGASQLMGENRTMTIHNGMFFSTYDRDNDGWLTSDPRKQCSKEDGGGWWYNRCHAANPNGRYYWGGQYTWDMAKHGTDDGVVWMNWKGSWYSMRKMSMKIRPFFPQQ
chain 3: YVATRDNCCILDERFGSYCPTTCGIADFLSTYQTKVDKDLQSLEDILHQVENKTSEVKQLIKAIQLTYNPDESSKPNMIDAATLKSRKMLEEIMKYEASILTHDSSIRYLQEIYNSNNQKIVNLKEKVAQLEAQCQEPCKDTVQIHDITGKDCQDIANKGAKQSGLYFIKPLKANQQFLVYCEIDGSGNGWTVFQKRLDGSVDFKKNWIQYKEGFGHLSPTGTTEFWLGNEKIHLISTQSAIPYALRVELEDWNGRTSTADYAMFKVGPEADKYRLTYAYFAGGDAGDAFDGFDFGDDPSDKFFTSHNGMQFSTWDNDNDKFEGNCAEQDGSGWWMNKCHAGHLNGVYYQGGTYSKASTPNGYDNGIIWATWKTRWYSMKKTTMKIIPFNRLTIGEGQQHHLGGAKQAGDV
modifications: Alexa488 label in the Table 2 assay
notes: Native ligand of αIIbβ3; also called Alexa488 labelled fibrinogen; Alexa 488 - Fibrinogen
